Measured values published in patent publication US10709761B2, “Methods and compositions for preventing or treating cancer” (UNIVERSITY OF UTAH RESEARCH FOUNDATION, priority 2015, dated 2020).

B1: EP53^anc: ancestral elephant TP53 gene (SEQ ID NO: 2) encoding elephant p53 protein (SEQ ID NO: 3), expressed from vector in cells (protein, listed as Loxodonta africana)
chain: MEEPQSDLSTELPLSQETFSYLWELLPENPVLSPTLPPAVEVMDDLLLSEDTANWLESQVEAQGMSTTPAPATPTPVAPAPATSWTLSSSVPSQKTYPGTYGFRLGFLHSGTAKSVTCTYSPDLNKLFCQLAKTCPVQLWVASPPPPGTRVRTMAIYKKSEHMTEVVKRCPHHERCSDSSDGLAPPQHLIRVEGNLRAEYLEDSITLRHSVVVPYEPPEVGSDCTTIHFNFMCNSSCMGGMNRRPILTIITLEDSSGNLLGRNSFEVRICACPGRDRRTEEENFHKKGEPCPEPPPPGRSTKRALPTNTSSSTQPKKKPLDEEYFTLQIRGRERFKMFLELNEALELKDAQAGKEPEGSRAHSSPSKSKKGQSTSRHKKPMFKREGPDSD

What was measured:
[1] = system: African elephant lymphocytes; assay: Annexin V / propidium iodide apoptosis after doxorubicin, elephant lymphocytes; format: cell-based; conditions: 5 μM doxorubicin, 18 and 24 hours
Description: Ionizing radiation (0.5, 2, 5, 6, 10, and 20 Gy) or doxorubicin (0.005-30 μM) were used to induce DNA damage in the cultured primary PBLs, which were then evaluated for signs of apoptosis, DNA repair efficiency, and cell cycle arrest. Apoptosis was evaluated by measuring the number of cells that stained for Annexin V (AV) and propidium iodide (PI); cells were categorized as being in late apoptosis if they were AV+PI+, and in early apoptosis if they were AV+PI−. Apoptosis was also measured either using APO-TOX GLO™ (Promega, Madison, Wis.) or CASPASE-GLO® 3/7 Assay (Promega) and […]-GLO® (Promega). The results were normalized to cell viability either using counts from the MULTI-TOX-FLUOR™ assay (Promega) included with APO-TOX GLO™, or using […]-GLO® when caspase activity was measured. Statistically significant differences in apoptosis were calculated in […] PRISM®.

elephant fibroblasts = assay: Caspase 3/7 cleavage after doxorubicin, elephant fibroblasts; format: cell-based, African elephant; conditions: 10 μM and 30 μM doxorubicin
human fibroblasts = assay: Caspase 3/7 cleavage after doxorubicin, human fibroblasts; format: cell-based; conditions: 10 μM and 30 μM doxorubicin
[2] = system: p53 target genes, p21 and MDM2; assay: Western blot of p53 pathway proteins in U-2OS cells expressing EP53^anc; format: cell-based, human
Description: For tetracycline inducible cells, the cells were treated with doxycycline for 24-48 hours prior to treatment with MG132 or doxorubicin. After the induction of DNA damage, the cells were harvested and pelleted. The cell pellets were frozen, and then lysed in cell lysis buffer containing phosphatase and protease inhibitors. The cell lysates were run on SDS-PAGE protein gels, and then transferred to PVDF membranes (western blots). The membranes were blocked, and then probed with primary antibodies to determine the p53 protein levels. The blots were probed with secondary HRP-conjugated antibodies, and the protein levels were detected using a substrate and a chemiluminometer. GAPDH was used as a loading control for each western blot. The blots were also probed for phosphorylated EP53^r at the serine-15 residue (phospho-EP53^r). DNA damage induces the phosphorylation of p53, which reduces the interaction of this protein with its negative regulator, mouse double minute 2 (MDM2) (Milczarek et al. Life Sci; 60: 1-11 (1997)).
(§1) U-2OS cells were also transduced with EP53^anc (SEQ ID NO: 2). These cells were then induced to express EP53^anc (SEQ ID NO: 3), and treated with doxorubicin to trigger DNA damage.

U-2OS cells [3] = assay: U-2OS caspase activity after doxycycline induction; format: cell-based, human; conditions: after induction with doxycycline
U-2OS cells [4] = assay: Caspase activity / apoptosis in U-2OS cells expressing EP53 genes; format: cell-based, human; conditions: compared to empty vector
Description: U-2OS cells were transfected with EP53^r5 (SEQ ID NO: 12) or EP53 ancestral (EP53^anc) (SEQ ID NO: 2), and then treated with doxycycline to induce EP53^r expression. The cells were then treated with doxorubicin to damage the DNA.
as §1

U-2OS cells [5] = assay: U-2OS cell viability after doxycycline induction; format: cell-based, human; conditions: 72 hours after induction with doxycycline
Description: U-2OS cells were also transfected with EP53^anc (SEQ ID NO: 2) and human TP53, and the cell viability after induction with doxycycline was observed after 72 hours.

[6] = U-2OS induced to express, doxorubicin-treated

Row | Molecule | early apoptosis (AV+PI−) [1] | late apoptosis (AV+PI+) [1] | caspase 3/7 cleavage (elephant fibroblasts) [fold increase] | caspase 3/7 cleavage (human fibroblasts) [fold increase] | endogenous human p53 expression ([2]; U-2OS cells expressing EP53^anc) | p53 target genes, p21 and MDM2 (western blot) [2, 6] | caspase activity (U-2OS cells [3]) [%] | increase in caspase activity (U-2OS cells [4]; [6]) [fold] | apoptosis (U-2OS cells [4]; U-2OS, absence of doxorubicin treatment) | cell viability (U-2OS cells [5]) [%]
1 | COc1cccc2c1C(=O)c1c(O)c3c(c(O)c1C2=O)C[C@@](O)(C(=O)CO)C[C@@H]3O[C@H]1C[C@H](N)[C@H](O)[C@H](C)O1 [doxorubicin] | significant increase | significant increase | 9.1 | 2.24 |  |  |  |  |  | 
2 | B1 |  |  |  |  | less | increase | 14.22 | 20 | significant apoptosis | 35.6
